System: MS2 coat protein
Assay: apparent KD of MS2 coat protein; higher = weaker reporter binding
Conditions: Eterna round: R107
Summary of the method: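 Designed RNA switches were transcribed on-chip from Illumina sequencing clusters. SNAP-549-labelled MS2 coat protein was titrated onto them in twofold steps from 0.7 or 1.5 nM to 3 µM in 100 mM Tris-HCl pH 7.5, 80 mM KCl, 4 mM MgCl2, either without or with constant ligand. Apparent KD reflects the per-design median of normalised cluster binding-curve fits.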

[1] = input ligand: theophylline 20 uM
[2] = input ligand: theophylline 2 mM
[3] = input ligand: tryptophan 2.4 mM

Sequence	apparent KD of MS2 coat protein (input ligand: arginine 13.2 mM) [nM]	apparent KD of MS2 coat protein (input ligand: none) [nM]	apparent KD of MS2 coat protein [1] [nM]	apparent KD of MS2 coat protein [2] [nM]	apparent KD of MS2 coat protein [3] [nM]
CCUCGGGACCGAAGGAGCGAGAUAACAACAUUGGGUCUCAACACAUGAGGAUCACCCAUGUCUCAGGUAGGUCGCGGUACCAUGG [Exclusion Arginine B GF22]	140	385	275	387	182
CCUGAUAACUGAAGGAGCGAGAAACCCUACAUGAGGAUCACCCAUGUAUACACGGGAACUUCUCAGGUAGGUCGCAGUUUGUCAG [Adiso]	48	101	165	138	71.5
CCUGCGUUUCUUCUUUCGCAGGAGGAUGAUACCAGUAGGGAAACCUACCCUUGGCAGCAUGGGACAUGAGGAUCACCCAUGUGGA [SSThA NP+V+V2 #1]	354	503	522	130	430
CCUGCGUUUCUUUUCUUUCGCAGGAAUGAUACCAGUAGGGAAACCUACCCUUGGCAGCAUGGGACAUGAGGAUCACCCAUGUUUU [SSThA NP+V+V2 #4]	117	–	202	–	181
CGAAUACGAAUUGAUACCAGCAUGUUAACAUGAGGAUCACCCAUGUUAAGGAUAACAUAAUGCCCUUGGCAGCAACGUAAAUUCG [Ab]	16.7	–	17.7	–	14.4
CGAAUGAAGCAAGAUACCAGUGUAGAUUUAGACAUGAGGAUCACCCAUGUGAGGCAUGAGCACCCUUGGCAGCUUAAGCAGAAAA [theeternabot_sameState_MS2_Theo_B_47]	115	28.7	25.7	60.5	29.4
CGAGUAAGAACAAUCGAAUAACGGUUUUCGCGAGGACCGGUACGGCCGCCACUCGUGUGAAAUAACACAUGAGGAUCACCCAUGU [3'end-1]	23.7	–	26.8	27.3	–
CGAGUAAGAACAAUCGAAUAACGGUUUUCGCGAGGACCGGUACGGCCGCCACUCGUGUGAUAUAACACAUGAGGAUCACCCAUGU [3'end-1]	25.3	–	37.6	34.9	–
CGAGUCCGCUGAUGGGCUAAGUCAGGUGAUACCAGCCACUCCCGCGGCCCUUGGCAGCACAUGAGGAUCACCCAUGUAGGGCUUG [Iserbele]	19.2	–	51.1	–	23.1
CGAGUUCGCUGAUGGGCUACGUCAGGUGAUACCAGCCACUCCCGCGGCCCUUGGCAGCACAUGAGGAUCACCCAUGUAGAGCUUG [Esinve]	12.2	–	28.6	–	15
CGAUUUAAGACGGCCGCCACUAUUAAGUAACAAAAUAAACAUGAGGAUCACCCAUGUACAUGGGAUAGGACCGGGUCCAAUAUCG [A2]	34.8	–	79.7	84.4	–
CGCAACCCACAUGAGGAUCACCCAUGUGAAGGAGCGCCGAAUAAGGCAGGUAGGUCGCGCAUGAAUAAAUCAUGUAGGAAGCGAA [XArg-A 6 V1&2]	20.6	32.2	32.6	33.4	29.1
CGCAACCCACAUGAGGAUCACCCAUGUGAAGGAGCGGCGAAUAAGCCAGGUAGGUCGCGCAUGAAUAAAUCAUGUAGGAAGCGAA [XArg-A 7 V1&2]	18	20.1	27.8	28	22.5
CGCCACUCGAGUGAUCCUCACGAGUGGCUACGAGGACCGGUACGGCCGCCACUCGAAUUAACAUGAGGAUCACCCAUGUACUCCA [Brourdmod10]	17.4	–	173	193	–
CGGACAUGAGGAUCACCCAUGUACACUGAAGGAGCGUCGAGAACGACAGGUAGGUCGCAGGUUGAGGAAGGUGAUGCUCAAGAAG [Exclusion Arginine A GF4]	25.1	44.7	71.9	57.4	50.6
CGGCCCUCACACGAGGAUCACCCGUGUGAUACCAGCCUGGAAACAGGCCCUUGGCAGCACAAGGUCAUCAAAGAUGACCAAGCCG [TheoAX 22 #SwitchBubble]	9.52	11.9	18	31.8	12.6
CGGCCCUCACCUGAGGAACACCCAGGUGAUACCAGCCUGGAAACAGGCCCUUGGCAGCACCAGGUCAUCAAAGAUGACCAAGCCG [TheoAX 24 #SwitchBubble #AlternativeMS2]	20.8	20.1	28.7	171	19.2
CGGCCCUCACUUGAGGAUCACCCAAGUGAUACCAGCCUGGAAACAGGCCCUUGGCAGCACUAGGUCAUCAAAGAUGACCAAGCCG [TheoAX 28 #OpenEnded #AlternativeMS2]	14.8	12.8	26	146	13.4
CGGCUCAUAAUGGAUACCAGUCCAGCAUAGAAACCUUGACACAUGAGGAUCACCCAUGUUGACCCUUGGCAGCCAUUGAUCAUAC [theeternabot_exclusion_MS2_Theo_B_28]	23.1	–	36.5	–	21.7

Sequence	apparent KD of MS2 coat protein (input ligand: arginine 13.2 mM) [nM]	apparent KD of MS2 coat protein (input ligand: none) [nM]	apparent KD of MS2 coat protein [1] [nM]	apparent KD of MS2 coat protein [2] [nM]	apparent KD of MS2 coat protein [3] [nM]
CGGGUUCGGGCGGCCGCCACUUUGAUUGGGUGUGACAUGAGGAUCACCCAUGUUGUGGGUGAUCGGAGGACCGGGUUUGGGCUUG [Fidorka]	85.2	65.6	471	744	240
CGGGUUGGACCAGGAAAUGGUCUGACGCGCCGAGGACCGGUACGGCCGCCACUCGCGGGUACAUGAGGAUCACCCAUGUCGGUGG [#1 Same State - Tryptophan A Attempt #12 (HarryS)]	58.2	50.4	69.3	61.7	93
CGGUUUGUGAUGGAUACCAGCAGUGUGGCUGUUUAUCCUGACAUGAGGAUCACCCAUGUGUGCCCUUGGCAGCUGUUGUGGGCUG [8.aC]	64.1	–	105	–	77
CGUAUCGUAACUGAUACCAGUGUACUGACAUGAGGAUCACCCAUGUUGGGUUUUGUUGUACACCCUUGGCAGCAGAAUCGAUACG [AstrosExyTheB#6]	52.1	–	68.6	–	62.9
CGUCAACAUGAGGAUCACCCAUGUUUCGAUACCAGUGACCCUCUCCACCCUUGGCAGCGAGCGCCCGCGCCUGAUAAAUCUUCUA [theeternabot_sameState_MS2_Theo_A_18]	13.5	–	16.4	–	14.1
CGUCGAAACUGAAGGAGCGAGAUGACAACAUUGGGUCUAACAUGAGGAUCACCCAUGUAAUCUCAGGUAGGUCGCGGUGACAACA [Exclusion Arginine B GF 17]	40.1	38.9	48.5	59.6	51.7
CGUUGGUGUGGAGACAUAUUGAUGACUGAAGGAGCGGGAAUAAACCCAGGUAGGUCGCAGAGAUCCACAUGAGGAUCACCCAUGU [!0.R]	26.3	73.1	74.9	154	49.5
CUAAUUAAAUCGGCCGCCACUUACUCAUGAGGUAACAACAUGAGGAUCACCCAUGUUUGAGGAUCAAGGACCGGGAUUUAAUUAG [AstrosSSTry#23]	24.9	–	33.7	30.1	–
CUACAUUUGUAGAAACCGGUCAACAUUAUUCGAGGACCGGUACGGCCGCCACUCGUAUAAUUUAAUACAUGAGGAUCACCCAUGU [Tryptophan A 5]	16.1	–	17.3	16.9	–
CUAUAAGUAACUGAUACCAGUGUACUGACAUGAGGAUCACCCAUGUUGGGUUUUGUUGUACACCCUUGGCAGCAGAAUCUUGUAG [AstrosExyTheB#15]	46.5	–	62.3	–	54
CUAUAGAUAAGAAGGAGCGUCGAAAAUGGGUAAACAUGAGGAUCACCCAUGUAAAGGGAACGACAGGUAGGUCGCUUAUUUAUAG [AstromonsSSArgB#6]	124	217	206	226	145
CUCAUCCACGCGGCCGCCACUAUAUUGUGGUGCGAAUGUGUCGUAAUACAUGAGGAUCACCCAUGUAGGACCGGGCGUGGAUGAG [#09 Exclusion Tryptophan B]	10.3	–	14.4	13.5	–
CUCAUCCACGCGGCCGCCACUAUAUUGUGGUGUGAAUGUGACGUAUUACAUGAGGAUCACCCAUGUAGGACCGGGCGUGGAUGAG [#07 Exclusion Tryptophan B]	55.8	–	86.2	93.5	–
CUCAUCCACGCGGCCGCCACUAUAUUGUGGUGUGAAUGUGUCGUAAUACAUGAGGAUCACCCAUGUAGGACCGGGCGUGGAUGAG [#08 Exclusion Tryptophan B]	19.3	–	30.9	37.4	–
CUCCCGUGGUCGGCCGCCACUGGAGGCCUUGCGCGACAUGAGGAUCACCCAUGUGGGCCCGGCGUCAGGACCGGGAUCGCGUGAG [#1 Same State - Tryptophan B Attempt #11 (HarryS)]	11.5	16.1	20.2	16.2	15.6
CUCCUGGGAGCGGCCGCCACUGGAGGCCUCGCGCGACAUGAGGAUCACCCAUGUUGGCCCGGCCUCAGGACCGGGUUCGCGCGAG [Same State - Tryptophan B Attempt #3]	8.01	12.9	17.9	10.6	10
CUCCUGGGAGCGGCCGCCACUGGAGGCCUUGCGCGACAUGAGGAUCACCCAUGUUGGCCCGGCCUCAGGACCGGGUUCGCGCGAG [Same State - Tryptophan B Attempt #2]	12.3	11.3	12.3	9.73	10.1
CUCCUGUGAGCGGCCGCCACUGGAGGCCUCGCGCGACAUGAGGAUCACCCAUGUUGGCCCGGCCUCAGGACCGGGUUCGCGCGAG [Same State - Tryptophan B Attempt #4 (HarryS)]	7.89	11.1	15.4	10.7	10.9
CUCGAGUUAUGAGAUACCAGACUAUAGUUUACAUGAGGAUCACCCAUGUUAUGGGUGGUGGUCCCUUGGCAGCUCAUAUGUUUAA [#08 Exclusion-TheophyllineB]	105	–	220	–	85.1

Reference: the supplement of paper PMC9170038
